Here are results for two variants from IntAct's records for PubMed 21642957.

B1: Serine/threonine-protein kinase Nek9 (Homo sapiens), Q8TD19 (parent)
chain: MSVLGEYERHCDSINSDFGSESGGCGDSSPGPSASQGPRAGGGAAEQEELHYIPIRVLGRGAFGEATLYRRTEDDSLVVWKEVDLTRLSEKERRDALNEIVILALLQHDNIIAYYNHFMDNTTLLIELEYCNGGNLYDKILRQKDKLFEEEMVVWYLFQIVSAVSCIHKAGILHRDIKTLNIFLTKANLIKLGDYGLAKKLNSEYSMAETLVGTPYYMSPELCQGVKYNFKSDIWAVGCVIFELLTLKRTFDATNPLNLCVKIVQGIRAMEVDSSQYSLELIQMVHSCLDQDPEQRPTADELLDRPLLRKRRREMEEKVTLLNAPTKRPRSSTVTEAPIAVVTSRTSEVYVWGGGKSTPQKLDVIKSGCSARQVCAGNTHFAVVTVEKELYTWVNMQGGTKLHGQLGHGDKASYRQPKHVEKLQGKAIRQVSCGDDFTVCVTDEGQLYAFGSDYYGCMGVDKVAGPEVLEPMQLNFFLSNPVEQVSCGDNHVVVLTRNKEVYSWGCGEYGRLGLDSEEDYYTPQKVDVPKALIIVAVQCGCDGTFLLTQSGKVLACGLNEFNKLGLNQCMSGIINHEAYHEVPYTTSFTLAKQLSFYKIRTIAPGKTHTAAIDERGRLLTFGCNKCGQLGVGNYKKRLGINLLGGPLGGKQVIRVSCGDEFTIAATDDNHIFAWGNGGNGRLAMTPTERPHGSDICTSWPRPIFGSLHHVPDLSCRGWHTILIVEKVLNSKTIRSNSSGLSIGTVFQSSSPGGGGGGGGGEEEDSQQESETPDPSGGFRGTMEADRGMEGLISPTEAMGNSNGASSSCPGWLRKELENAEFIPMPDSPSPLSAAFSESEKDTLPYEELQGLKVASEAPLEHKPQVEASSPRLNPAVTCAGKGTPLTPPACACSSLQVEVERLQGLVLKCLAEQQKLQQENLQIFTQLQKLNKKLEGGQQVGMHSKGTQTAKEEMEMDPKPDLDSDSWCLLGTDSCRPSL

One assay covers variants of B1. Particulars: with plk1_human PLK1, P53350.
Sequence of plk1_human PLK1, P53350 (P53350 whole entry): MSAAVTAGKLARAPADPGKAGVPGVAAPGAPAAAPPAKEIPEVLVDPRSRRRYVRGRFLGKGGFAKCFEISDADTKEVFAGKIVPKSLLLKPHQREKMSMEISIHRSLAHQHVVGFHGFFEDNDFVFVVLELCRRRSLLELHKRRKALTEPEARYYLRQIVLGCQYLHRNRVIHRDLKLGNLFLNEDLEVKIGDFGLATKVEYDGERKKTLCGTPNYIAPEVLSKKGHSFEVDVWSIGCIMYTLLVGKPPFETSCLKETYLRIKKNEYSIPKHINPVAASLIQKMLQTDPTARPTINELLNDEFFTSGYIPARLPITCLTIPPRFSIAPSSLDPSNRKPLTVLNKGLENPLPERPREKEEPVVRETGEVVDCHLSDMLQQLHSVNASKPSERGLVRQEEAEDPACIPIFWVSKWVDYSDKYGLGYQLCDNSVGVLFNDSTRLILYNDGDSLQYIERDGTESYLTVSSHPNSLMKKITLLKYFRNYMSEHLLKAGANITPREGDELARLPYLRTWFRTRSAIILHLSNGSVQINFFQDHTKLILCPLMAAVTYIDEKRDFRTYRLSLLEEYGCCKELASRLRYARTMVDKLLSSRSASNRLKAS
S869A: the “effect of a mutation on the interaction” value is recorded as “disrupting interaction”.

Variants of B1 are the subject of the next assay. Particulars: with plk1_human PLK1, P53350. This is another data set of the same source.
S750A: the “effect of a mutation on the interaction” value is “decreasing interaction”.
